{
  "source": "the RNAGym collection of RNA variant scans (doi:10.1073/pnas.2313332121)",
  "parents": {"B1": {"name": "TPR 5TU (parent)", "chain": "GGAUCUUCUCGAUCUAACAAAAAAGACAAAUCUGCCACAAAGCUUGAGAGCAUCUUCGGAUGCAGAGGCGGCAGCCUUCGGUGGCGCGAUAGCGCCAACGUUCUCAACUAUGACACGCAAAACGCGUGCUCCGUUGAAUGGAGUUUAUCAUG"}},
  "note": "This sample holds only a part of the variants without activity.",
  "data": [
    {"variants_of": "B1", "assay": "polymerase ribozyme fitness, log enrichment relative to wild type (log ratio); higher = more active; in vitro selection for triplet polymerase activity", "outline": "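Libraries of mutants in each subunit of a heterodimeric triplet polymerase ribozyme were generated by PCR and transcribed. In triplicate, each went through one in vitro selection round: annealing with biotinylated primer, partner subunit and triplets; frozen incubation at −7 °C; gel excision of extended constructs; streptavidin-bead capture; RT-PCR. Fitness, taken from Illumina sequencing of input and output libraries, is the logarithm of a genotype's enrichment over wild-type enrichment, averaged across replicates with inverse-variance weights. The logarithm is base 2, and genotypes needed ≥10 input reads and ≥1 read per output to be kept.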", "values": [
      {"variant": "GGAUCUUCUCGAUCUAACAAAAAAGACAAAUCUGCCACAAAGCUUGAGAGCAUAUUCGGAUGCAGAGGCGGCAGCCUUCGGUGCCGCGAUAGCGCCAACGUUCUCAACUAUGACACGCAAAACGCGUGCUCCGUUGAAUGGAGUUUAUCAUG", "note": "[C54A G84C]", "polymerase ribozyme fitness (log ratio)": -2.93},
      {"variant": "GGAUCUUCUCGAUCUAACAAAAAAGACAAAUCUGCCACAAAGCUUGAGAGCAUCAUCGGAUGAAGAGGCGGCAGCCUUCGGUGGCGCGAUAGCGCGAACGUUCUCAACUAUGACACGCAAAACGCGUGCUCCGUUGAAUGGAGUUUAUCAUG", "note": "[U55A C63A C96G]", "polymerase ribozyme fitness (log ratio)": -2},
      {"variant": "GGAUCUUCUCGAUCUAUCAAAAAAGACAAAUCUGCCACAAAGCUUGAGAGCAUCUUCGGAUGCAGAGGCGGCAGCCGUCGGUGGCGGGAUACCGCCAACGUUCUCAACUAUGACACGCCAAACGCGUGCUCCGUUGAAUGGAGUUUAUCAUG", "note": "[A17U U77G C87G G92C A119C]", "polymerase ribozyme fitness (log ratio)": "≤ -4.2"},
      {"variant": "GGAUCUUCUCGAUCUAACCAAAAAGACAAAUCUGCCACAAAGCUUGAGAGCAUCUUCGGAUGCAGAGGCGGCAGCCUUCGGUGGCGCGAUAGCGCCAACGUUCUCAACUAUGACACGCAAAACGCGUCCUCCGUUGAAUGGAGUUUAUCAUG", "note": "[A19C G128C]", "polymerase ribozyme fitness (log ratio)": -3},
      {"variant": "GGAUCUUCUCGAUCUAACAAACAUGACAAAUCUGCCACAAAGCUUGAGAGCAUAUUCGGAUGCAGAGGCGGCAGCCAUCGGUGUCGCGAUAGCGCCAACGUUCUCAACUAUGACACGCAAAACGCGUGCUCCGUUGAAUGGAGUUUAUCAUG", "note": "[A22C A24U C54A U77A G84U]", "polymerase ribozyme fitness (log ratio)": "≤ -4.2"},
      {"variant": "GGAUCUUCUCGAUCUAACAAGAAAGACAAAUCUGCCACAAAGCUUGAGCGCAUCUUCGGAUGCAGAGGCGGCAGCCUUCGGUGGCGCGAUAGGGCUAACGUUCUCAACUAUGACACGCAAAACGCGUGCUCCGUUGAAUGGAGUUUAUCAUG", "note": "[A21G A49C C93G C96U]", "polymerase ribozyme fitness (log ratio)": "≤ -4.2"},
      {"variant": "GGAUCUUCUCGAUCUAACAAAAAAGACAAAUCUGCCACAAAGCUUCAGAGCAUCUUCGGUUGCAGAGGCGGCAGCCUUCGGUGGCGCGAUAGCGCCAACGUUCUCAACUAUGACACGCAAAACGCGUGCUCCGUUGAAUGGAGUUUAUCAUG", "note": "[G46C A60U]", "polymerase ribozyme fitness (log ratio)": -1.74},
      {"variant": "GGAUCUUCUCGAUCUAACAAAAAAGACAAAUCUGCCACAAAGCUUGAGAGCAUAUUCGGAUGCAGAGGCGGCAGCCUUCGGUGGCGCGAUAGCGCCAACGUUCUCAACUAUGACAUGCAAAACGCGUGCUCCGUUGAAUGGAUUUUAUCAUG", "note": "[C54A C116U G143U]", "polymerase ribozyme fitness (log ratio)": -3.09},
      {"variant": "GGAUCUUCUCGAUCUAACAAAAAAGACAAAACUGCCACAAAGCUUGAGAGCAUCUUCUGAUGCAGAGGCGGCAGCCUUCGGUGGCGCGAUAGCGCCAACGUUCUCAACUAUGACACGCAAAACGCGUGCUCCGUUGAAUGGAGUUGAUCAUG", "note": "[U31A G58U U146G]", "polymerase ribozyme fitness (log ratio)": -0.274},
      {"variant": "GGAUCUUCUCGAUCUAACAAAUAAGACUAAUCUGCCAGAAAGCUUGAGAGUAUCUUCGGAUGCAGAGGCGGCAGCCUUCGGUCGCGCGAUAGCGCCAACGUUCUCAACUAUGACACGCAAAACGCGUGCUCCGUUGAAUGGAGUUUAUCAUG", "note": "[A22U A28U C38G C51U G83C]", "polymerase ribozyme fitness (log ratio)": "≤ -4.2"},
      {"variant": "GGAUCUUCUCGAUCUAACUAAAAAGACAAAUCUGCCACAAAGCUUGAGAGCAUCUUCGGAUGCAGAGGCGGCAGCCUUCGGUGGCGCGAUAGCGCCAACGUUCACAACUAUGACACGCAAAACGCGUGCUCCGUUGAAUGGAGUUUAUCAUG", "note": "[A19U U104A]", "polymerase ribozyme fitness (log ratio)": -0.0348},
      {"variant": "GGAUCUUCUCGAUCUAACAAAAAAGACUAAUCUGACACAAUGCUUGAGAGCAACUUCGAAUGCAGAGGCGGCAGCCUUCGGUGGUGCGAUAGCGCCAACGUUCUCAACUAUGACACGCAAAACGCGUACUCCGUUGAAUGGAGUUUAUCAUG", "note": "[A28U C35A A41U U53A G59A C85U G128A]", "polymerase ribozyme fitness (log ratio)": "≤ -4.2"},
      {"variant": "GGAUCUUCUCGAUCUAACAAAAAAGACAAAUCUGCCACAAAGCUUGAGAGCAUCGUCGGAUGCAGAGGCGGCAGCCUUCGGUGACGCGAUAGCGCCAACGUUCUCAACUAUGACACGCAAAACGCGUGCUCCGUUGAAUGGAGUUUAUCAUG", "note": "[U55G G84A]", "polymerase ribozyme fitness (log ratio)": -1.68},
      {"variant": "GGAUCUUCUCGAUCUAACAAAAAAGACAAAUCUGCCACAAAUCUUGAGAGCAUCUUCGGAUGUAGAGACGGCAGCCUUCGGUGGCGCGAUAGCGUCAACGUUCUCAACUAUUACACGCAAAACGCGUGCUCCGUUGAAUGGAGUUGAUCAUG", "note": "[G42U C63U G68A C95U G112U U146G]", "polymerase ribozyme fitness (log ratio)": "≤ -4.2"},
      {"variant": "GGAUCUUCUCGAUCUAACAAAAAAGACAAAUCUGCCACAAAGCUUGAGAGCGGCUUCGGAUGCAGAGGCGGCAGCCGUCGGUGGCGCGAUAGCGCCAACGUUCUCAACUAUGACACGCAAAACGCGUGCUGCGUUGAAUGGAGUUUAUCAUG", "note": "[A52G U53G U77G C131G]", "polymerase ribozyme fitness (log ratio)": "≤ -4.2"},
      {"variant": "GGAUCUUCUCGAUCUAACAAAAAAGACAAAUCUGCCACAAAGCUUGAGAGAAUCUUCGGAUGCAGAGGCGGCAGCCUUCGGUGGCGCGAUAGCGCCAACGCUCUCAACUAUGACACGCAAAAAGCGUGCUCCGUUGAAUGGAGUUUAUCAUG", "note": "[C51A U101C C123A]", "polymerase ribozyme fitness (log ratio)": -2.09},
      {"variant": "GGAUCUUCUCGAUCUAACAAAAAAGACAAUUCUGCCACAAAGCUUGAGAGCAUCUUCGGAUGCAGAGGCGGCAGCCUUCGGUGGCGCGAUAGCACCAACGUUCUCAACUAUGACACGCAAAACGCGUGCUCCGUUGAAUGAAGUUUAUCAUG", "note": "[A30U G94A G141A]", "polymerase ribozyme fitness (log ratio)": "≤ -4.2"},
      {"variant": "GGAUCUUCUCGAUCUAACAAAAAAGACAAAUCUGCCACAAAGCUUGAGAGCAUCUUCGGAUGCAGAGGCGGCAGCCUUCGGUGGCGCGAUAGCACCAACGUUCUCAACUAUGACUCGCAAAACGUGUGCUCUGUUGAAUGGAGUUUUUCAUG", "note": "[G94A A115U C125U C132U A147U]", "polymerase ribozyme fitness (log ratio)": "≤ -4.2"},
      {"variant": "GGAUCUUCAUGAUCUAACAAAAAAGACAAAUCUGCCACAAAGCUUGAGAGCAACUUCGGAUGCAGUGGCGGCAGCCUUCGGUGGCGAGAUAGCGCCAACGUUCUCAACUAUGACACGCUAAACGCAUGCUCCGUUGAAUGAAGUUUAUCAUG", "note": "[U9A C10U U53A A66U C87A A119U G126A G141A]", "polymerase ribozyme fitness (log ratio)": -4.03}
    ]}
  ]
}
